Substitutions are numbered along the chain they refer to. Names and notes keep the numbering of the source.

From US20250250322A1 (CHILDREN S HOSPITAL OF PHILADELPHIA, published 2025) come the findings set out here.

In this test the target is T1, Factor IXa (UniProt P00740 47-191; P00740 227-461).
T1 construct: also called FIXa
In words: functional Kd from intrinsic Xase FXa-generation assay; 0.25 nM FVIIIa, 0-20 nM FIXa, 200 nM FX, 20 uM phospholipids. The protocol:
Kinetic analysis of FXa generation was performed by an intrinsic Xase assay, as described with modifications (Wilhelm, et al. (2021) Blood 137:2532-2543; Lollar, et al. (1989) Biochemistry 28 (2): 666-674). Activated FVIII (FVIIIa) was generated by incubating 25 nM FVIII with 100 nM thrombin for 30 seconds and thereafter quenched with hirudin (150 nM). […] At various time intervals (0.25-2 minutes), aliquots of the reaction mixture were quenched in 20 mM HEPES, 150 mM NaCl, 25 mM EDTA, 0.1% polyethylene glycol-8000, pH 7.4. The amount of FXa in each quenched sample was assessed using Spectrozyme® Xa by measuring absorbance at 405 nm in SpectraMax® 190 Microplate reader (Molecular Devices) and comparing the results to a prepared FXa standard curve.
TABLE 1 Biochemical Characterization of FVIII Proteins. Specific activity was determined by an aPTT based clotting assay measurement of clotting activity relative to protein concentration. Kinetic values were determined for FX activation by an intrinsic Xase assay using equimolar FVIIIa and FIXa (0.25 nM) 0.25 nM FVIIIa, 0.25 nM or 0-20 nM FIXa and 0-500 nM FX in the presence of 20 μM phospholipids. […] Data are represented as means ± SEM from at least two independent experiments.

T1 sequence (P00740 47-191 limits assumed, form in doubt, chain 1 of 2): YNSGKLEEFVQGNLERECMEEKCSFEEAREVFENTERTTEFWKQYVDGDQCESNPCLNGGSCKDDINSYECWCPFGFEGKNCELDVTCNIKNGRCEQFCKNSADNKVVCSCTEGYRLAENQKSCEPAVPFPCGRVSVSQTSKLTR
T1 sequence (P00740 227-461 limits assumed, form in doubt, chain 2 of 2): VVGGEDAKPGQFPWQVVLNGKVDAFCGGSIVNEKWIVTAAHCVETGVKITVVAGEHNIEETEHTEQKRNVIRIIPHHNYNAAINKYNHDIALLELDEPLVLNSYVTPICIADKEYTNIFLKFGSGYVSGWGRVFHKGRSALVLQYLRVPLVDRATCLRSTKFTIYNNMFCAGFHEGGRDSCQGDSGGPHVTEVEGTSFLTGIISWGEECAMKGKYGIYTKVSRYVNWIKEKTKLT

B1: FVIIIa-QQVV (thrombin-activated B-domain deleted FVIII R336Q/R562Q/D519V/E665V) (other)
chain 1: ATRRYYLGAVELSWDYMQSDLGELPVDARFPPRVPKSFPFNTSVVYKKTLFVEFTDHLFNIAKPRPPWMGLLGPTIQAEVYDTVVITLKNMASHPVSLHAVGVSYWKASEGAEYDDQTSQREKEDDKVFPGGSHTYVWQVLKENGPMASDPLCLTYSYLSHVDLVKDLNSGLIGALLVCREGSLAKEKTQTLHKFILLFAVFDEGKSWHSETKNSLMQDRDAASARAWPKMHTVNGYVNRSLPGLIGCHRKSVYWHVIGMGTTPEVHSIFLEGHTFLVRNHRQASLEISPITFLTAQTLLMDLGQFLLFCHISSHQHDGMEAYVKVDSCPEEPQLQMKNNEEAEDYDDDLTDSEMDVVRFDDDNSPSFIQIR
chain 2: SVAKKHPKTWVHYIAAEEEDWDYAPLVLAPDDRSYKSQYLNNGPQRIGRKYKKVRFMAYTDETFKTREAIQHESGILGPLLYGEVGDTLLIIFKNQASRPYNIYPHGITDVRPLYSRRLPKGVKHLKDFPILPGEIFKYKWTVTVEVGPTKSDPRCLTRYYSSFVNMERDLASGLIGPLLICYKESVDQQGNQIMSDKRNVILFSVFDENRSWYLTENIQRFLPNPAGVQLEDPEFQASNIMHSINGYVFDSLQLSVCLHEVAYWYILSIGAQTDFLSVFFSGYTFKHKMVYVDTLTLFPFSGETVFMSMENPGLWILGCHNSDFRNRGMTALLKVSSCDKNTGDYYEDSYEDISAYLLSKNNAIEPR
chain 3: SFQKKTRHYFIAAVERLWDYGMSSSPHVLRNRAQSGSVPQFKKVVFQEFTDGSFTQPLYRGELNEHLGLLGPYIRAEVEDNIMVTFRNQASRPYSFYSSLISYEEDQRQGAEPRKNFVKPNETKTYFWKVQHHMAPTKDEFDCKAWAYFSDVDLEKDVHSGLIGPLLVCHTNTLNPAHGRQVTVQEFALFFTIFDETKSWYFTENMERNCRAPCNIQMEDPTFKENYRFHAINGYIMDTLPGLVMAQDQRIRWYLLSMGSNENIHSIHFSGHVFTVRKKEEYKMALYNLYPGVFETVEMLPSKAGIWRVECLIGEHLHAGMSTLFLVYSNKCQTPLGMASGHIRDFQITASGQYGQWAPKLARLHYSGSINAWSTKEPFSWIKVDLLAPMIIHGIKTQGARQKFSSLYISQFIIMYSLDGKKWQTYRGNSTGTLMVFFGNVDSSGIKHNIFNPPIIARYIRLHPTHYSIRSTLRMELMGCDLNSCSMPLGMESKAISDAQITASSYFTNMFATWSPSKARLHLQGRSNAWRPQVNNPKEWLQVDFQKTMKVTGVTTQGVKSLLTSMYVKEFLISSSQDGHQWTLFFQNGKVKVFQGNQDSFTPVVNSLDPPLLTRYLRIHPQSWVHQIALRMEVLGCEAQDLY
notes: also called FVIII-QQVV; FVIII-QQ/VV
In the case of B1, binding was put at a Kd of 1.2 nM.

B2: FVIIIa-VV (thrombin-activated B-domain deleted FVIII D519V/E665V) (other)
chain 1: B1 chain 1 with Q336R
chain 2: B1 chain 2 with Q190R
chain 3: B1 chain 3
notes: also called FVIII-VV
In the case of B2, binding was characterised by a dissociation constant (Kd) of 1.6 nM.
